Experimental data: patent US20160046678A1 (ZYNGENIA, published 2016)
Ends that are not written are not given here.

Target: T1, Angiopoietin-2 (Ang2) (human, UniProt O15123 19-496, biotin label in Examples 22-24)
T1 construct: also called rhAng2; recombinant Ang2
T1 sequence (looked up): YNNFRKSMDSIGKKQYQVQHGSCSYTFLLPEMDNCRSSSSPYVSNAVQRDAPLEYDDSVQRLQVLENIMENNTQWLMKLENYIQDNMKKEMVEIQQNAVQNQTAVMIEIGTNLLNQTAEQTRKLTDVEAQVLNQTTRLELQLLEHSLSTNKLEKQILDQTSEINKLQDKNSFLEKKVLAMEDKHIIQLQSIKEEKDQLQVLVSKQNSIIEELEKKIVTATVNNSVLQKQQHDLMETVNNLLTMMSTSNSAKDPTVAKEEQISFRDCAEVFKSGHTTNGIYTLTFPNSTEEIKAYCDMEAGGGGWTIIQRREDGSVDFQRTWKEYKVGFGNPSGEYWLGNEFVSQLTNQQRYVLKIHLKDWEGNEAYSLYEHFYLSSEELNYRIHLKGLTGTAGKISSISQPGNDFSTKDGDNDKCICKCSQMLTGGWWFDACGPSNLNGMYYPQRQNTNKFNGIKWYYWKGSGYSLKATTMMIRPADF
Test: ELISA, MRD-MBP fusions on rhAng2-coated wells; references L17D and Lm32 KtoS MBP fusions

B1: 2xLm32 MRD-MBP fusion (other)
chain: MGAQTNFMPMDNDELLLYEQFILQQGLEGGSGSTASSGSGSSLGAQTNFMPMDNDELLLY
modifications: also: fused to maltose binding protein, MRD downstream of malE, two copies of Lm32
notes: also called Lm32 dimer; LM-2x-32; not shown: MRD inserted downstream of malE
With B1 the fold higher affinity was > 10 fold.
